Biological target: T1, EsCas13d, nuclease-dead (Eubacterium siraeum, UniProt B0MS50, R295A;H300A;R849A;H854A)
T1 sequence: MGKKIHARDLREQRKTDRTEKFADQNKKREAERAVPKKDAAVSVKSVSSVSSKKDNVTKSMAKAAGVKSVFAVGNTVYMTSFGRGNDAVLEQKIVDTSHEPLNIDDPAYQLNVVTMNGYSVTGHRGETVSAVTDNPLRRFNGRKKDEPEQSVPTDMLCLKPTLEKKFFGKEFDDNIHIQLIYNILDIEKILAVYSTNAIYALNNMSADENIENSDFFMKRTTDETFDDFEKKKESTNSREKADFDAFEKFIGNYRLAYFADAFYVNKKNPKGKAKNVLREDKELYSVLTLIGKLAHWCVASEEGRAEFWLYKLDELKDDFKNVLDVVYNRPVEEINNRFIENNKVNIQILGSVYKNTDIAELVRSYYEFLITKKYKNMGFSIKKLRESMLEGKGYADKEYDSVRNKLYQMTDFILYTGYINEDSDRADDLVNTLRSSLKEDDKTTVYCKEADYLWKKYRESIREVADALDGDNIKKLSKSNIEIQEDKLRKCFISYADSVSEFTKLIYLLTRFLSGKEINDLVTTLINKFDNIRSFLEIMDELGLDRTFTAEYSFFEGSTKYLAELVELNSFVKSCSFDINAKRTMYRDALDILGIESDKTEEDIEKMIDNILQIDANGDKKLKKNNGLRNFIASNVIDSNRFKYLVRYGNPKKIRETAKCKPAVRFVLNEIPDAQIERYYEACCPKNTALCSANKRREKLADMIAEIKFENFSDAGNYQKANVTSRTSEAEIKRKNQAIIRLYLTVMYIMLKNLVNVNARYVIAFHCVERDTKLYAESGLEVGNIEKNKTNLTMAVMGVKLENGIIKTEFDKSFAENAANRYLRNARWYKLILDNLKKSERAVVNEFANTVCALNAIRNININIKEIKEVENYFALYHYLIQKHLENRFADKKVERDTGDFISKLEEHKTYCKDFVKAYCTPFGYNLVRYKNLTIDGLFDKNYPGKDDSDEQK
Experiment: crRNA (strand 1, pre-loaded); Mg2+; 40 mM Tris-HCl pH 7.5, 150 mM NaCl, 6 mM MgCl2, 1 mM DTT, 0.1% Tween-20, 0.2 mg/ml BSA; 25 C; 10 min per concentration, then washed
Details: tags: His6-TwinStrep-SUMO cleaved; N-terminal SNAP kept (SNAP-Surface 488); label: 3' end held by stalled T7 RNA polymerase

B1: target 1 C6G,A14U (mixed)
RNA 1: CACCCGUGCAAAAAUGCAGGGGUCUAAAACUGAGCGGAUAACCUCUCUAUGG
RNA 2: GGGAAUGGAUCCACAUCUACGAAUUCGUACCAUAGAGUGGUUAUCGGCUCACCGAGAUCGGAAGAGCACACGU
  Kd: 41 ± 14 nM

B2: target 1 insC 3' of 22,insU 3' of 4 (mixed)
RNA 1: CACCCGUGCAAAAAUGCAGGGGUCUAAAACUGAGCGGAUAACCUCUCUAUGG
RNA 2: GGGAAUGGAUCCACAUCUACGAAUUCGUACCCAUAGAGAGGUUAUCCGCUUCACCGAGAUCGGAAGAGCACACGU
  Kd: 15.1 ± 1.6 nM

B3: target 1 insU 3' of 20,insA 3' of 17 (mixed)
RNA 1: CACCCGUGCAAAAAUGCAGGGGUCUAAAACUGAGCGGAUAACCUCUCUAUGG
RNA 2: GGGAAUGGAUCCACAUCUACGAAUUCGUACCAUUAGAAGAGGUUAUCCGCUCACCGAGAUCGGAAGAGCACACGU
  Kd: 27.3 ± 2.4 nM

B4: target 2 MT 5'PFS GCA 3'PFS CAA (mixed)
RNA 1: CACCCGUGCAAAAUUGCAGGGGUCUAAAACCUUCUCCAAAUUGUUUCAUCCU
RNA 2: GGGAAUGGAUCCACAUCUACGAAUUCGCAAGGAUGAAACAAUUUGGAGAAGCAAAGAUCGGAAGAGCACACGU
  Kd: 7.7 ± 1.1 nM

B5: target 2 MT 5'PFS GCC 3'PFS CAU (mixed)
RNA 1: CACCCGUGCAAAAUUGCAGGGGUCUAAAACCUUCUCCAAAUUGUUUCAUCCU
RNA 2: GGGAAUGGAUCCACAUCUACGAAUUCGCCAGGAUGAAACAAUUUGGAGAAGCAUAGAUCGGAAGAGCACACGU
  Kd: 14 ± 4 nM

B6: target 2 MT 5'PFS AGA 3'PFS CUU (mixed)
RNA 1: CACCCGUGCAAAAUUGCAGGGGUCUAAAACCUUCUCCAAAUUGUUUCAUCCU
RNA 2: GGGAAUGGAUCCACAUCUACGAAUUCAGAAGGAUGAAACAAUUUGGAGAAGCUUAGAUCGGAAGAGCACACGU
  Kd: 8.4 ± 1.2 nM

B7: target 2 MT 5'PFS UGU 3'PFS AGU (mixed)
RNA 1: CACCCGUGCAAAAUUGCAGGGGUCUAAAACCUUCUCCAAAUUGUUUCAUCCU
RNA 2: GGGAAUGGAUCCACAUCUACGAAUUCUGUAGGAUGAAACAAUUUGGAGAAGAGUAGAUCGGAAGAGCACACGU
  Kd: 14.8 ± 2.4 nM

B8: target 2 MT 5'PFS AUA 3'PFS AGU (mixed)
RNA 1: CACCCGUGCAAAAUUGCAGGGGUCUAAAACCUUCUCCAAAUUGUUUCAUCCU
RNA 2: GGGAAUGGAUCCACAUCUACGAAUUCAUAAGGAUGAAACAAUUUGGAGAAGAGUAGAUCGGAAGAGCACACGU
  Kd: 26 ± 6 nM

B9: target 2 MT 5'PFS CUG 3'PFS CGA (mixed)
RNA 1: CACCCGUGCAAAAUUGCAGGGGUCUAAAACCUUCUCCAAAUUGUUUCAUCCU
RNA 2: GGGAAUGGAUCCACAUCUACGAAUUCCUGAGGAUGAAACAAUUUGGAGAAGCGAAGAUCGGAAGAGCACACGU
  Kd: 3.4 ± 0.6 nM

B10: target 2 MT 5'PFS CUG 3'PFS CGU (mixed)
RNA 1: CACCCGUGCAAAAUUGCAGGGGUCUAAAACCUUCUCCAAAUUGUUUCAUCCU
RNA 2: GGGAAUGGAUCCACAUCUACGAAUUCCUGAGGAUGAAACAAUUUGGAGAAGCGUAGAUCGGAAGAGCACACGU
  Kd: 3.9 ± 0.6 nM

B11: target 2 MT 5'PFS GCA 3'PFS CAG (mixed)
RNA 1: CACCCGUGCAAAAUUGCAGGGGUCUAAAACCUUCUCCAAAUUGUUUCAUCCU
RNA 2: GGGAAUGGAUCCACAUCUACGAAUUCGCAAGGAUGAAACAAUUUGGAGAAGCAGAGAUCGGAAGAGCACACGU
  Kd: 7.9 ± 1.5 nM

B12: target 2 MT 5'PFS AGA 3'PFS CUC (mixed)
RNA 1: CACCCGUGCAAAAUUGCAGGGGUCUAAAACCUUCUCCAAAUUGUUUCAUCCU
RNA 2: GGGAAUGGAUCCACAUCUACGAAUUCAGAAGGAUGAAACAAUUUGGAGAAGCUCAGAUCGGAAGAGCACACGU
  Kd: 11.7 ± 1.9 nM

B13: target 2 MT 5'PFS AUA 3'PFS AGG (mixed)
RNA 1: CACCCGUGCAAAAUUGCAGGGGUCUAAAACCUUCUCCAAAUUGUUUCAUCCU
RNA 2: GGGAAUGGAUCCACAUCUACGAAUUCAUAAGGAUGAAACAAUUUGGAGAAGAGGAGAUCGGAAGAGCACACGU
  Kd: 7.6 ± 1.1 nM

B14: target 2 MT 5'PFS AGA 3'PFS CUG (mixed)
RNA 1: CACCCGUGCAAAAUUGCAGGGGUCUAAAACCUUCUCCAAAUUGUUUCAUCCU
RNA 2: GGGAAUGGAUCCACAUCUACGAAUUCAGAAGGAUGAAACAAUUUGGAGAAGCUGAGAUCGGAAGAGCACACGU
  Kd: 5.9 ± 1.1 nM

B15: target 2 MT 5'PFS GCA 3'PFS CAC (mixed)
RNA 1: CACCCGUGCAAAAUUGCAGGGGUCUAAAACCUUCUCCAAAUUGUUUCAUCCU
RNA 2: GGGAAUGGAUCCACAUCUACGAAUUCGCAAGGAUGAAACAAUUUGGAGAAGCACAGAUCGGAAGAGCACACGU
  Kd: 7.5 ± 1 nM

B16: target 2 MT 5'PFS CUG 3'PFS CGG (mixed)
RNA 1: CACCCGUGCAAAAUUGCAGGGGUCUAAAACCUUCUCCAAAUUGUUUCAUCCU
RNA 2: GGGAAUGGAUCCACAUCUACGAAUUCCUGAGGAUGAAACAAUUUGGAGAAGCGGAGAUCGGAAGAGCACACGU
  Kd: 2.31 ± 0.31 nM

B17: target 2 MT 5'PFS GAC 3'PFS CUC (mixed)
RNA 1: CACCCGUGCAAAAUUGCAGGGGUCUAAAACCUUCUCCAAAUUGUUUCAUCCU
RNA 2: GGGAAUGGAUCCACAUCUACGAAUUCGACAGGAUGAAACAAUUUGGAGAAGCUCAGAUCGGAAGAGCACACGU
  Kd: 12.1 ± 1.3 nM

B18: target 2 MT 5'PFS CGA 3'PFS UGC (mixed)
RNA 1: CACCCGUGCAAAAUUGCAGGGGUCUAAAACCUUCUCCAAAUUGUUUCAUCCU
RNA 2: GGGAAUGGAUCCACAUCUACGAAUUCCGAAGGAUGAAACAAUUUGGAGAAGUGCAGAUCGGAAGAGCACACGU
  Kd: 6.8 ± 1.5 nM

B19: target 2 MT 5'PFS GUC 3'PFS CCG (mixed)
RNA 1: CACCCGUGCAAAAUUGCAGGGGUCUAAAACCUUCUCCAAAUUGUUUCAUCCU
RNA 2: GGGAAUGGAUCCACAUCUACGAAUUCGUCAGGAUGAAACAAUUUGGAGAAGCCGAGAUCGGAAGAGCACACGU
  Kd: 14.9 ± 1 nM

B20: target 2 MT 5'PFS GAG 3'PFS AUC (mixed)
RNA 1: CACCCGUGCAAAAUUGCAGGGGUCUAAAACCUUCUCCAAAUUGUUUCAUCCU
RNA 2: GGGAAUGGAUCCACAUCUACGAAUUCGAGAGGAUGAAACAAUUUGGAGAAGAUCAGAUCGGAAGAGCACACGU
  Kd: 9.9 ± 1.4 nM

B21: target 2 MT 5'PFS GUG 3'PFS CAA (mixed)
RNA 1: CACCCGUGCAAAAUUGCAGGGGUCUAAAACCUUCUCCAAAUUGUUUCAUCCU
RNA 2: GGGAAUGGAUCCACAUCUACGAAUUCGUGAGGAUGAAACAAUUUGGAGAAGCAAAGAUCGGAAGAGCACACGU
  Kd: 6.8 ± 0.6 nM

B22: target 2 MT 5'PFS GCA 3'PFS CAU (mixed)
RNA 1: CACCCGUGCAAAAUUGCAGGGGUCUAAAACCUUCUCCAAAUUGUUUCAUCCU
RNA 2: GGGAAUGGAUCCACAUCUACGAAUUCGCAAGGAUGAAACAAUUUGGAGAAGCAUAGAUCGGAAGAGCACACGU
  Kd: 8.8 ± 1.8 nM

B23: target 2 MT 5'PFS AGA 3'PFS CUA (mixed)
RNA 1: CACCCGUGCAAAAUUGCAGGGGUCUAAAACCUUCUCCAAAUUGUUUCAUCCU
RNA 2: GGGAAUGGAUCCACAUCUACGAAUUCAGAAGGAUGAAACAAUUUGGAGAAGCUAAGAUCGGAAGAGCACACGU
  Kd: 7.6 ± 1.4 nM

B24: target 2 MT 5'PFS UGU 3'PFS AGC (mixed)
RNA 1: CACCCGUGCAAAAUUGCAGGGGUCUAAAACCUUCUCCAAAUUGUUUCAUCCU
RNA 2: GGGAAUGGAUCCACAUCUACGAAUUCUGUAGGAUGAAACAAUUUGGAGAAGAGCAGAUCGGAAGAGCACACGU
  Kd: 12.5 ± 2.1 nM

B25: target 2 MT 5'PFS GCC 3'PFS CAG (mixed)
RNA 1: CACCCGUGCAAAAUUGCAGGGGUCUAAAACCUUCUCCAAAUUGUUUCAUCCU
RNA 2: GGGAAUGGAUCCACAUCUACGAAUUCGCCAGGAUGAAACAAUUUGGAGAAGCAGAGAUCGGAAGAGCACACGU
  Kd: 9.4 ± 0.8 nM

B26: target 2 MT 5'PFS AUA 3'PFS AGA (mixed)
RNA 1: CACCCGUGCAAAAUUGCAGGGGUCUAAAACCUUCUCCAAAUUGUUUCAUCCU
RNA 2: GGGAAUGGAUCCACAUCUACGAAUUCAUAAGGAUGAAACAAUUUGGAGAAGAGAAGAUCGGAAGAGCACACGU
  Kd: 6.1 ± 1.1 nM

B27: target 2 MT 5'PFS GAG 3'PFS AUA (mixed)
RNA 1: CACCCGUGCAAAAUUGCAGGGGUCUAAAACCUUCUCCAAAUUGUUUCAUCCU
RNA 2: GGGAAUGGAUCCACAUCUACGAAUUCGAGAGGAUGAAACAAUUUGGAGAAGAUAAGAUCGGAAGAGCACACGU
  Kd: 4.8 ± 0.5 nM

B28: target 2 MT 5'PFS GAG 3'PFS AUU (mixed)
RNA 1: CACCCGUGCAAAAUUGCAGGGGUCUAAAACCUUCUCCAAAUUGUUUCAUCCU
RNA 2: GGGAAUGGAUCCACAUCUACGAAUUCGAGAGGAUGAAACAAUUUGGAGAAGAUUAGAUCGGAAGAGCACACGU
  Kd: 5.6 ± 0.4 nM
